In patent US20040052794A1 (published 2004):
One block for each binder: values may come before it.

Key:
[1] = molecular target: T1, GST-RB18A-N1 (aa 436 to 1566) fusion protein (human, UniProt Q15648 451-1581); assay: GST pull-down of 35S-translated product on glutathione Sepharose beads
T1 construct: D9 cDNA cloned downstream of the glutathione transferase gene in pGEX4T-3; also called GST-RB18A fusion protein; mutant 1; not shown: GST moiety (glutathione transferase of pGEX4T-3) and the vector linker between GST and RB18A
From the text: (§1) GST fusion proteins were produced in E. coli strain BL21 and purified on glutathione Sepharose 4B beads (Pharmacia LKB) as described by the manufacturer. […] After washing, pelleting, and boiling in Laemmli buffer, eluted proteins were resolved on 10% SDS/PAGE and visualized by autoradiography.

[2] = molecular target: T1, GST-RB18A-N1 (aa 436 to 1566) fusion …; assay: GST pull-down, quantification of retained protein
From the text: as §1

[3] = molecular target: human wild-type p53 (product of p53-H8 cDNA, plasmid pSP65-p53H8) (human, UniProt P04637 1-393); assay: cell-based or functional assay
Chain of human wild-type p53 (product of p53-H8 cDNA, plasmid pSP65-p53H8) (P04637 whole entry): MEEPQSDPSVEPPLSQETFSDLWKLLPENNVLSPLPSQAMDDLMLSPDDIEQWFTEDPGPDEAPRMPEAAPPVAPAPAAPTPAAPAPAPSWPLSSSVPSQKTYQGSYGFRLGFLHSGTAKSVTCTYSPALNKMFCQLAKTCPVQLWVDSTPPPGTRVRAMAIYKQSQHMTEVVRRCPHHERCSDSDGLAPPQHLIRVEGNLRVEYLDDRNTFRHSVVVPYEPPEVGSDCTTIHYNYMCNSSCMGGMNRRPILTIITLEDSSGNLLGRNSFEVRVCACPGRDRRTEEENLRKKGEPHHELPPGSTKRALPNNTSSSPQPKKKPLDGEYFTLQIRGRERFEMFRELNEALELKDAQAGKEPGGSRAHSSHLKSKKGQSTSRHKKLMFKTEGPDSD

% of input bound [1]: 10 % of input | molar ratio retained on GST-RB18A [2]: 1 molar ratio
B1: in vitro translated product of D9 cDNA (partial RB18A, aa 436 to 1566) (other)
chain: SVSFQHPVNDSLVCVVMDVQGLTHVSCKLYKGLSDALICTDDFIAKVVQRCMSIPVTMRAIRRKAETIQADTPALSLIAETVEDMVKKNLPPASSPGYGMTTGNNPMSGTTTSTNTFPGGPIATLFNMSMSIKDRHESVGHGEDFSKVSQNPILTSLLQITGNGGSTIGSSPTPPHHTPPPVSSMAGNTKNHPMLMNLLKDNPAQDFSTLYGSSPLERQNSSSGSPRMEICSGSNKTKKKKSSRLPPEKPKHQTEDDFQRELFSMDVDSQNPIFDVNMTADTLDTPHITPAPSQCSTPPTTYPQPVPHPQPSIQRMVRLSSSDSIGPDVTDILSDIAEEASKLPSTSDDCPAIGTPLRDSSSSGHSQSTLFDSDVFQTNNNENPYTDPADLIADAAGSPSSDSPTNHFFHDGVDFNPDLLNSQSQSGFGEEYFDESSQSGDNDDFKGFASQALNTLGVPMLGGDNGETKFKGNNQADTVDFSIISVAGKALAPADLMEHHSGSQGPLLTTGDLGKEKTQKRVKEGNGTSNSTLSGPGLDSKPGKRSRTPSNDGKSKDKPPKRKKADTEGKSPSHSSSNRPFTPPTSTGGSKSPGSAGRSQTPPGVATPPIPKITIQIPKGTVMVGKPSSHSQYTSSGSVSSSGSKSHHSHSSSSSSSASTSGKMKSSKSEGSSSSKLSSSMYSSQGSSGSSQSKNSSQSGGKPGSSPITKHGLSSGSSSTKMKPQGKPSSLMNPSLSKPNISPSHSRPPGGSDKLASPMKPVPGTPPSSKAKSPISSGSGGSHMSGTSSSSGMKSSSGLGSSGSLSQKTPPSSNSCTASSSSFSSSGSSMSSSQNQHGSSKGKSPSRNKKPSLTAVIDKLKHGVVTSGPGGEDPLDGQMGVSTNSSSHPMSSKHNMSGGEFQGKREKSDKDKSKVSTSGSSVDSSKKTSESKNVGSTGVAKIIISKHDGGSPSIKAKVTLQKPGESSGEGLRPQMASSKNYGSPLISGSTPKHERGSPSHSKSPAYTPQNLDSESESGSSIAEKSYQNSPSSDDGIRPLPEYSTEKHKKHKKEKKKVKDKDRDRDRDKDRDKKKSHSIKPESWSKSPISSDQSLSMTSNTILSADRPSRLSPDFMIGEEDDDLMDVALIGN
modifications: 35S-methionine labelled
notes: also called 35S-RB18A protein; in vitro translated D9 protein

activation of the IGF-BP3 promoter (reporter gene in H1299 and K562 cells) [3]: 13 fold | activation of the MDM2 promoter (reporter gene in H1299 and K562 cells) [3]: 5 fold | activation of the p21Waf1 promoter (reporter gene in H1299 and K562 cells) [3]: 10 fold
B2: carboxy-terminal domain of RB18A expressed in transfected cells (cDNA nucleotides 3935 to 4933) (other)
chain: LGSSGSLSQKTPPSSNSCTASSSSFSSSGSSMSSSQNQHGSSKGKSPSRNKKPSLTAVIDKLKHGVVTSGPGGEDPLDGQMGVSTNSSSHPMSSKHNMSGGEFQGKREKSDKDKSKVSTSGSSVDSSKKTSESKNVGSTGVAKIIISKHDGGSPSIKAKVTLQKPGESSGEGLRPQMASSKNYGSPLISGSTPKHERGSPSHSKSPAYTPQNLDSESESGSSIAEKSYQNSPSSDDGIRPLPEYSTEKHKKHKKEKKKVKDKDRDRDRDKDRDKKKSHSIKPESWSKSPISSDQSLSMTSNTILSADRPSRLSPDFMIGEEDDDLMDVALIGN
